Experimental data from patent US20100239570A1 (published 2010).
Where no end group is shown, it is not given here.

T1: Abeta1-11 (UniProt P05067 672-682)
T1 construct: range 1-11; Range is counted on the Abeta peptide
T1 peptide (looked up): DAEFRHDSGYE

T2: Abeta17-28 (UniProt P05067 688-699)
T2 construct: range 17-28; Range is counted on the Abeta peptide
T2 peptide (looked up): LVFFAEDVGSNK

T3: peptide consisting of amino acids 22-35 of Abeta (UniProt P05067 693-706)
T3 construct: range 22-35; Range is counted on the Abeta peptide; also called Abeta22-35
T3 peptide (looked up): EDVGSNKGAIIGLM

B1: Abeta29-40 fragment (peptide)
peptide: GAIIGLMVGGVV
modifications: not fully specified
B2: antibody NI-103 (antibody, V domains shown)
VH: EVQLHQSGPELVKPGASVKISCKTSGYTFTEYTMHWVKQSHGKSLEWIGGVNPYNDNTSYIRKLQGKVTLTVDRSSSTAYMELRSLTSEDSAVYFCARYGGLRPYYFPMDFWGQGTSVTVSS
VL: QVVLSQSPAILSASPGERVTLTCRASSSVNYMHWYQQKPGSSPKAWIYATSNLASGVPDRFSASGSGTSYSLTISRVEAEDAATYYCQQWRTNPPTFGAGTKLELKR
notes: detected in ELISA with anti-mouse IgG; treated as the same molecule

Key:
antibody NI-103 = target: B2; assay: competition ELISA, peptide at 1 µM in solution against coated Abeta1-42
Protocol: (§1) 96 well half area Microplates (Corning) were coated with synthetic Abeta-peptide preparations at a standard concentration of 1 μg/ml in coating buffer (15 mM Na₂CO₃, 35 mM NaHCO₃, pH 9.42) overnight at 4° C. Plates were washed and non-specific binding sites were blocked for 1 h at RT with PBS containing 2% BSA (Sigma, Buchs, Switzerland).

Abeta29-40 fragment = target: B1; assay: ELISA, peptide coated at 1 ug/ml
Protocol: as §1

Abeta1-11 = target: T1, Abeta1-11; assay: ELISA, peptide coated at 1 ug/ml
Protocol: as §1

Abeta1-28 = target: T4, Abeta1-28 (UniProt P05067 672-699); assay: ELISA, peptide coated at 1 ug/ml
T4 construct: range 1-28; Range is counted on the Abeta peptide
Protocol: as §1

Abeta17-28 = target: T2, Abeta17-28; assay: ELISA, peptide coated at 1 ug/ml
Protocol: as §1

Abeta1-38 = target: T5, Abeta1-38 (UniProt P05067 672-709); assay: ELISA, peptide coated at 1 ug/ml
T5 construct: range 1-38; Range is counted on the Abeta peptide; also called Abeta fragment consisting of amino acids 1-38
Protocol: as §1

[1] = target: T3, peptide consisting of amino acids 22-35 …; assay: ELISA, peptide coated at 1 ug/ml
Protocol: as §1

[2] = target: T6, human wild type APP fused at the intracellular C-terminus to the yellow fluorescent protein variant Citrine, … (human, UniProt P05067 18-770); assay: immunofluorescence on live HEK 293 cells expressing human APP-Citrine, 30 min at 4 C
T6 construct: whole, on cells; also called cellular full-length APP; cell-surface APP; not shown: yellow fluorescent protein variant Citrine at the intracellular C-terminus
Protocol: HEK 293 cells were transiently transfected with a vector that expresses human wild type APP fused at the intracellular C-terminus to the yellow fluorescent protein variant Citrine. 24 hours after transfection the cells were incubated with human recombinant antibodies or control antibodies at 4° C. for 30 minutes. After a washing step the cell were fixed and surface-bound antibody was detected using Cy-3-labeled secondary antibodies to human or mouse IgG (Jackson ImmunoResearch). Analysis of fluorescence was performed on a confocal microscope (Leica).
Citrin-positive signals indicate APP-expressing cells.

Row | binding result (antibody NI-103) | binding result (Abeta29-40 fragment) | binding result (Abeta1-11) | binding result (Abeta1-28) | binding result (Abeta17-28) | binding result (Abeta1-38) | binding result [1] | binding result [2] | Binder
1 | binds | – | – | – | – | – | – | – | B1
2 | – | binds | no binding | no binding | no binding | no binding | no binding | no binding | B2
